Laboratory results taken from PMC9482650, “Quantitative fragmentomics allow affinity mapping of interactomes” (Nature Communications, 2022).

T1: ARHGEF11, O15085
T1 sequence (O15085 42-136, limits assumed, looked up): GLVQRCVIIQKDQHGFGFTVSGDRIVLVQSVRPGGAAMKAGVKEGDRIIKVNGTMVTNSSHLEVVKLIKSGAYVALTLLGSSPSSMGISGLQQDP

T2: DLG3_2, Q92796
T2 sequence (Q92796 221-321, limits assumed, looked up): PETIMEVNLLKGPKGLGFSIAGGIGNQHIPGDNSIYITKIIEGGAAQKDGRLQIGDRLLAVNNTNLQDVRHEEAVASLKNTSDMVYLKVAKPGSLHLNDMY

T3: FRMPD1, Q5SYB0
T3 sequence (Q5SYB0 52-145, limits assumed, looked up): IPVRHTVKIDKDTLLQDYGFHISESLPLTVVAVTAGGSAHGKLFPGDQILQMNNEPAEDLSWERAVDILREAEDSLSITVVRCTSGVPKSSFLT

T4: LIN7A, O14910
T4 sequence (O14910 103-200, limits assumed, looked up): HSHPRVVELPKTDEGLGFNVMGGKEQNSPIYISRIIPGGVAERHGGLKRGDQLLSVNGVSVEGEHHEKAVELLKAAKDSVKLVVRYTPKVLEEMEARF

T5: MPDZ_12, O75970
T5 sequence (O75970 1857-1958, limits assumed, looked up): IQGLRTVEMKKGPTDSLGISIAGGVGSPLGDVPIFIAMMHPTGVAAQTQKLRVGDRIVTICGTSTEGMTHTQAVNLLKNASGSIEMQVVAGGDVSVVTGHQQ

T6: PCLO, Q9Y6V0
T6 sequence (Q9Y6V0 4491-4600, limits assumed, looked up): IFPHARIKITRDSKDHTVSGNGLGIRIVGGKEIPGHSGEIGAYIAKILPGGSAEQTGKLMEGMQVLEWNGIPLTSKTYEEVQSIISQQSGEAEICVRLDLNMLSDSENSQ

T7: PTPN13_1, Q12923
T7 sequence (Q12923 1088-1188, limits assumed, looked up): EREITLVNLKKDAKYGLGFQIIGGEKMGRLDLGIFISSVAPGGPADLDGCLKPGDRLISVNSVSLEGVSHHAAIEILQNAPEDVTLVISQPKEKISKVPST

T8: SHANK1, Q9Y566
T8 sequence (Q9Y566 658-767, limits assumed, looked up): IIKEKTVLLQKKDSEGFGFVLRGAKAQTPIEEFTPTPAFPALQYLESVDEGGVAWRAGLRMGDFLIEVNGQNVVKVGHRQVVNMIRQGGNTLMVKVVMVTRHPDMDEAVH

T9: TX1BP3, O14907
T9 sequence (O14907 10-122, limits assumed, looked up): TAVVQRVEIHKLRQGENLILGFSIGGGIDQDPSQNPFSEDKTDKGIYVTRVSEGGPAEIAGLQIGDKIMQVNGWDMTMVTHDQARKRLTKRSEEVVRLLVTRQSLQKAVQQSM


Legend:
Assay in all cases: holdup assay
Set-up in all cases: key: below the threshold = too weak to quantify, mostly under pKd 3.1 to 4
Conditions in all cases: plain residues with an end cap or a label only (N-terminal biotin on a linker: ado-ado)
ARHGEF11, O15085 = molecular target: T1, ARHGEF11, O15085
DLG1_1, Q12959 = molecular target: DLG1_1, Q12959
DLG2_3, Q15700 = molecular target: DLG2_3, Q15700
DLG3_2, Q92796 = molecular target: T2, DLG3_2, Q92796
DLG5_1, Q8TDM6 = molecular target: DLG5_1, Q8TDM6
Chain of DLG5_1, Q8TDM6 (Q8TDM6 617-713): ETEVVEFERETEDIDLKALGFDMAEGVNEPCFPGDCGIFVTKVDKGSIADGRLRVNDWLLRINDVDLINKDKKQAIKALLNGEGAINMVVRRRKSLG

FRMPD1, Q5SYB0 = molecular target: T3, FRMPD1, Q5SYB0
GIPC2, Q8TF65 = molecular target: GIPC2, Q8TF65
Chain of GIPC2, Q8TF65 (Q8TF65 112-203): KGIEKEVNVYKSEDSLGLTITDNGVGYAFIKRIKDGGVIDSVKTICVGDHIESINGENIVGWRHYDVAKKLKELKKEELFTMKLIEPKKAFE

GORASP2, Q9H8Y8 = molecular target: GORASP2, Q9H8Y8
GRASP, Q7Z6J2 = molecular target: GRASP, Q7Z6J2
Chain of GRASP, Q7Z6J2 (Q7Z6J2 96-193): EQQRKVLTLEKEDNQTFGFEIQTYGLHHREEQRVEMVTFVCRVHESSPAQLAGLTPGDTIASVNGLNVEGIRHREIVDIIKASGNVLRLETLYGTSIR

GRID2IP_1, A4D2P6 = molecular target: GRID2IP_1, A4D2P6
Chain of GRID2IP_1, A4D2P6 (A4D2P6 1-87): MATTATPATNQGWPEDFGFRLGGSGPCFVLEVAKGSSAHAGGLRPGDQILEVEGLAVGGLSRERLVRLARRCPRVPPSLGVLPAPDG

Inadl_1, Q8NI35 = molecular target: Inadl_1, Q8NI35
Chain of Inadl_1, Q8NI35 (Q8NI35 113-229): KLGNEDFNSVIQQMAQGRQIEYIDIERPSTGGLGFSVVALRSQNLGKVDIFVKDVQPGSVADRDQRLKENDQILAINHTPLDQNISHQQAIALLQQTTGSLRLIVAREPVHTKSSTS

Inadl_10, Q8NI35 = molecular target: Inadl_10, Q8NI35
Chain of Inadl_10, Q8NI35 (Q8NI35 1673-1763): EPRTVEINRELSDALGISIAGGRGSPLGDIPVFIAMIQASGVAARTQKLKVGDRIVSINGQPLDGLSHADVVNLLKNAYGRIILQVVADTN

Inadl_5, Q8NI35 = molecular target: Inadl_5, Q8NI35
Chain of Inadl_5, Q8NI35 (Q8NI35 673-780): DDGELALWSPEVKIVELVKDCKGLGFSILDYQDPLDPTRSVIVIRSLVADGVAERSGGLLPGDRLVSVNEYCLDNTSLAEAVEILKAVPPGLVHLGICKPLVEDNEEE

Inadl_9, Q8NI35 = molecular target: Inadl_9, Q8NI35
Chain of Inadl_9, Q8NI35 (Q8NI35 1530-1615): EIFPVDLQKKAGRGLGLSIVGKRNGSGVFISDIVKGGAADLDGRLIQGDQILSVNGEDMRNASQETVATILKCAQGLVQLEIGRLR

LIN7A, O14910 = molecular target: T4, LIN7A, O14910
LNX1_1, Q8TBB1 = molecular target: LNX1_1, Q8TBB1
Chain of LNX1_1, Q8TBB1 (Q8TBB1 261-371): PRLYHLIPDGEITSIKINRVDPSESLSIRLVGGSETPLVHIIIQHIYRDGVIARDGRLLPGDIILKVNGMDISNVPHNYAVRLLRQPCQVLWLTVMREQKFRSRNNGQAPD

MAGI2_2, Q86UL8 = molecular target: MAGI2_2, Q86UL8
Chain of MAGI2_2, Q86UL8 (Q86UL8 410-522): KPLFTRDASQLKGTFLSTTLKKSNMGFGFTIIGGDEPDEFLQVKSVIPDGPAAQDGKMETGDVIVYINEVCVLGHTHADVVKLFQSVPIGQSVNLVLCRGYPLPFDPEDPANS

MAGI2_3, Q86UL8 = molecular target: MAGI2_3, Q86UL8
Chain of MAGI2_3, Q86UL8 (Q86UL8 600-682): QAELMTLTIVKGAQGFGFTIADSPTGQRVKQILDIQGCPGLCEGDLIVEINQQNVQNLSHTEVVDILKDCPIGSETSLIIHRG

MAGI2_6, Q86UL8 = molecular target: MAGI2_6, Q86UL8
Chain of MAGI2_6, Q86UL8 (Q86UL8 1141-1229): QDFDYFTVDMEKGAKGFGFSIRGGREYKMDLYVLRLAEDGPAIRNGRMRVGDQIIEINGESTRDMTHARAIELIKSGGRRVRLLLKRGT

MAST2, Q6P0Q8 = molecular target: MAST2, Q6P0Q8
Chain of MAST2, Q6P0Q8 (Q6P0Q8 1099-1202): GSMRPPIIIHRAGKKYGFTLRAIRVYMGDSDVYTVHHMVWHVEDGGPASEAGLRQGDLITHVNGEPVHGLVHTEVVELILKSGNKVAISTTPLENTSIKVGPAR

MPDZ_12, O75970 = molecular target: T5, MPDZ_12, O75970
NHERF2_2, Q15599 = molecular target: NHERF2_2, Q15599
Chain of NHERF2_2, Q15599 (Q15599 142-238): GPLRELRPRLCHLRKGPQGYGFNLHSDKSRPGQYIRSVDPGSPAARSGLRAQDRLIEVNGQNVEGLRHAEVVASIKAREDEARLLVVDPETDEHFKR

NHERF4_4, Q86UT5 = molecular target: NHERF4_4, Q86UT5
Chain of NHERF4_4, Q86UT5 (Q86UT5 464-550): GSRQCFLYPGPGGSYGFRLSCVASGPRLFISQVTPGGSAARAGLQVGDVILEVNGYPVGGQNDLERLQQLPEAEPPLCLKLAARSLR

PCLO, Q9Y6V0 = molecular target: T6, PCLO, Q9Y6V0
PDZRN4_1, Q6ZMN7 = molecular target: PDZRN4_1, Q6ZMN7
Chain of PDZRN4_1, Q6ZMN7 (Q6ZMN7 213-318): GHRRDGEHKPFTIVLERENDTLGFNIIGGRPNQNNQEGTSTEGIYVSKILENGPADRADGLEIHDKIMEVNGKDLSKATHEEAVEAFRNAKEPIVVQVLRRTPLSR

PTPN13_1, Q12923 = molecular target: T7, PTPN13_1, Q12923
PTPN3, P26045 = molecular target: PTPN3, P26045
Chain of PTPN3, P26045 (P26045 505-587): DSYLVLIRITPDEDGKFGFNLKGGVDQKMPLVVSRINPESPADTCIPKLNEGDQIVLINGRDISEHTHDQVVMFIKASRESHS

SHANK1, Q9Y566 = molecular target: T8, SHANK1, Q9Y566
TX1BP3, O14907 = molecular target: T9, TX1BP3, O14907

| Binder | pKd (ARHGEF11, O15085) | pKd (DLG1_1, Q12959) | pKd (DLG2_3, Q15700) | pKd (DLG3_2, Q92796) | pKd (DLG5_1, Q8TDM6) | pKd (FRMPD1, Q5SYB0) | pKd (GIPC2, Q8TF65) | pKd (GORASP2, Q9H8Y8) | pKd (GRASP, Q7Z6J2) | pKd (GRID2IP_1, A4D2P6) | pKd (Inadl_1, Q8NI35) | pKd (Inadl_10, Q8NI35) | pKd (Inadl_5, Q8NI35) | pKd (Inadl_9, Q8NI35) | pKd (LIN7A, O14910) | pKd (LNX1_1, Q8TBB1) | pKd (MAGI2_2, Q86UL8) | pKd (MAGI2_3, Q86UL8) | pKd (MAGI2_6, Q86UL8) | pKd (MAST2, Q6P0Q8) | also measured |
| --- | --- | --- | --- | --- | --- | --- | --- | --- | --- | --- | --- | --- | --- | --- | --- | --- | --- | --- | --- | --- | --- |
| QSARLWETSI [ADAM22, Q9P0K1] | 3.79 | 4.21 | 4.47 | 4.32 | below the threshold | below the threshold | 4.11 | 3.55 | 4.17 | below the threshold | 3.84 | 3.8 | below the threshold | below the threshold | 3.69 | 4.43 | 3.72 | below the threshold | 4.22 | 5.62 | pKd (MPDZ_12, O75970): below the threshold; pKd (NHERF2_2, Q15599): 3.83; pKd (NHERF4_4, Q86UT5): 3.91; pKd (PCLO, Q9Y6V0): below the threshold; pKd (PDZRN4_1, Q6ZMN7): 5; pKd (PTPN13_1, Q12923): below the threshold; pKd (PTPN3, P26045): 4.83; pKd (SHANK1, Q9Y566): 3.72; pKd (TX1BP3, O14907): 4.8 |
| MLSKQSESAI [FLVCR1, Q9Y5Y0] | below the threshold | below the threshold | below the threshold | 3.68 | below the threshold | below the threshold | 3.74 | below the threshold | below the threshold | below the threshold | below the threshold | below the threshold | below the threshold | below the threshold | below the threshold | 3.52 | 3.8 | below the threshold | below the threshold | 4.58 | pKd (MPDZ_12, O75970): below the threshold; pKd (NHERF2_2, Q15599): below the threshold; pKd (NHERF4_4, Q86UT5): 3.92; pKd (PCLO, Q9Y6V0): below the threshold; pKd (PDZRN4_1, Q6ZMN7): 3.62; pKd (PTPN13_1, Q12923): below the threshold; pKd (PTPN3, P26045): 4.55; pKd (SHANK1, Q9Y566): below the threshold; pKd (TX1BP3, O14907): 4.1 |
| QSPANIYYKV [EFNB1, P52799] | below the threshold | below the threshold | below the threshold | below the threshold | below the threshold | below the threshold | below the threshold | 5.16 | below the threshold | below the threshold | 3.82 | below the threshold | below the threshold | below the threshold | below the threshold | below the threshold | below the threshold | below the threshold | below the threshold | 4.56 | pKd (MPDZ_12, O75970): below the threshold; pKd (NHERF2_2, Q15599): below the threshold; pKd (NHERF4_4, Q86UT5): below the threshold; pKd (PCLO, Q9Y6V0): below the threshold; pKd (PDZRN4_1, Q6ZMN7): below the threshold; pKd (PTPN13_1, Q12923): below the threshold; pKd (PTPN3, P26045): below the threshold; pKd (SHANK1, Q9Y566): below the threshold; pKd (TX1BP3, O14907): below the threshold |
| SAAKVLTSMC [GHRHR, Q02643] | 4.21 | below the threshold | 3.8 | 4.12 | below the threshold | below the threshold | below the threshold | below the threshold | 4.32 | below the threshold | below the threshold | below the threshold | below the threshold | below the threshold | below the threshold | 3.86 | below the threshold | below the threshold | below the threshold | 4.15 | pKd (MPDZ_12, O75970): below the threshold; pKd (NHERF2_2, Q15599): below the threshold; pKd (NHERF4_4, Q86UT5): below the threshold; pKd (PCLO, Q9Y6V0): below the threshold; pKd (PDZRN4_1, Q6ZMN7): below the threshold; pKd (PTPN13_1, Q12923): below the threshold; pKd (PTPN3, P26045): 3.71; pKd (SHANK1, Q9Y566): 3.89; pKd (TX1BP3, O14907): 3.54 |
